{"source": "patent US20220089722A1", "about": "(NANTONG YICHEN BIOPHARMA, published 2022)", "binders": {"B1": {"name": "IgFD-8 (bispecific antibody, human IgG1, kappa)", "chain 1": "EVQLVESGGGLVQPGGSLRLSCAASGFTFNTYAMNWVRQAPGKGLEWVARIRSKYNNYATYYADSVKDRFTISRDDSKNTLYLQMNSLRAEDTAVYYCVRHGNFGNSYVSWFAYWGQGTLVTVSSASTKGPSVFPLAPSSKSTSGGTAALGCLVKDYFPEPVTVSWNSGALTSGVHTFPAVLQSSGLYSLSSVVTVPSSSLGTQTYICNVNHKPSNTKVDKKVEPKSCDKTHTCPPCPAPPVAGPSVFLFPPKPKDTLMISRTPEVTCVVVDVSHEDPEVKFNWYVDGVEVHNAKTKPREEQYNSTYRVVSVLTVLHQDWLNGKEYKCKVSNKGLPSSIEKTISKAKGQPREPQVYTLPPSRDELTKNQVSLTCLVKGFYPSDIAVEWESNGQPENNYKTTPPVLDSDGSFFLYSKLTVDKSRWQQGNVFSCSVMHEALHNHYTQKSLSLSPGK", "chain 2": "QAVVTQEPSLTVSPGGTVTLTCRSSTGAVTTSNYANWVQQKPDHLFRGLIGGTNKRAPGTPARFSGSLLGDKAALTISGAQPEDEAEYYCALWYSNLWVFGGGTKLTVLKRTVAAPSVFIFPPSDEQLKSGTASVVCLLNNFYPREAKVQWKVDNALQSGNSQESVTEQDSKDSTYSLSSTLTLSKADYEKHKVYACEVTHQGLSSPVTKSFNRGECDKTHTCPPCPAPPVAGPSVFLFPPKPKDTLMISRTPEVTCVVVDVSHEDPEVKFNWYVDGVEVHNAKTKPREEQYNSTYRVVSVLTVLHQDWLNGKEYKCKVSNKGLPSSIEKTISKAKGQPREPQVYTLPPSRDELTKNQVSLTCLVKGFYPSDIAVEWESNGQPENNYKTTPPVLDSDGSFFLYSKLTVDKSRWQQGNVFSCSVMHEALHNHYTQKSLSLSPGKGGSGGSGGGGSGGGGSDIQMTQSPSSLSASVGDRVTITCQASQDISNYLNWYQQKPGKAPKLLIYDASNLETGVPSRFSGSGSGTDFTFTISSLQPEDIATYFCQHFDHLPLAFGGGTKVEIKGGGGSGGGGSGGGGSQVQLQESGPGLVKPSETLSLTCTVSGGSVSSGDYYWTWIRQSPGKGLEWIGHIYYSGNTNYNPSLKSRLTISIDTSKTQFSLKLSSVTAADTAIYYCVRDRVTGAFDIWGQGTMVTVSS"}}, "key": {"[1]": {"target": "T1, EGFR on F98-EGFR cells (UniProt P00533 25-1210, limits assumed)", "assay": "cell-based or functional assay"}, "[2]": {"target": "T1, EGFR on F98-EGFR cells", "assay": "flow cytometry on F98-EGFR cells", "protocol": "F98-EGFR cells (a DMEM containing 10% FBS, 200 μg/ml G418) were cultured. 2×10⁵ cells were washed by precooled PBS for 3 times, and blocked by 2% FBS (soluble to PBS). IgFD-8, IgFD-9, IgFD-10, IgFD-11, IgFD-18, IgFD-19, IgFD-25, IgFD-26 or IgFD-31 (aEGFR expressed in a laboratory as a control) was added and incubated for 2 h at 4° C. (cells were gently mixed during incubation), unbounded antibodies were washed by 2% FBS (soluble to PBS), and then the remaining cells were incubated by FITC anti-human IgGFc(KPL, Inc., MD) for 1 h at 4° C., and washed by 2% FBS (soluble to PBS) for flow cytometry analysis. As shown in FIG. 7 and Table 4, the anti-CD3/anti-EGFR heterodimers in different forms of fusion could bind to EGFR on F98-EGFR cells, and there was no significant difference in the binding capacity of different heterodimers to F98-EGFR."}, "[3]": {"target": "T2, CD3 on T cells (Jurkat T cells; PBMC-T cells)", "T2 construct": "whole, on cells; the target is inferred from the anti-CD3 arm of the constructs", "T2 sequence (P07766 23-207)": "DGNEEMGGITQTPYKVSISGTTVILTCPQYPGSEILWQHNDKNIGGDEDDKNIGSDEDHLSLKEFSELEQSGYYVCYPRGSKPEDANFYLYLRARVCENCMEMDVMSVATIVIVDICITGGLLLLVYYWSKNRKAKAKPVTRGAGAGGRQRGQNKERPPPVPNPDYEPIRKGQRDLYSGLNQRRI", "assay": "flow cytometry on activated T cells from PBMCs (PBMC-T)", "protocol": "Peripheral blood of healthy volunteers was collected, and Ficoll-Hypaque(GE Healthcare) was used to separate peripheral blood monouclear cells (PBMCs) via gradient centrifugation. The purified PBMCs were resuspended in RPMI 1640/10% FBS complete medium. PBMCs were incubated with immobilized anti-CD3 (Clone OKT3, eBiosciences), and 2 μg mL anti-CD28 (Clone CloneCD28.2, eBiosciences) at 37° C. for 48 h. The activated T cells were then expanded for 10d with 20 U/ml IL2(R&D Systems). 2×10⁵ cells were washed by precooled PBS for 3 times, and blocked by 2% FBS (in PBS), and then incubated with IgFD-8, IgFD-18 or IgFD-19 at different concentrations (25 nM, 7.5 nM, 2.5 nM, 0.75 nM or 0.25 nM) for 1 h at 4° C. (cells were gently mixed during incubation). Unbounded antibodies were washed by 2% FBS (in PBS), and the cells were incubated with FITC anti-human IgGFc (KPL, Inc., MD) for 1 h at 4° C. (cells were gently mixed during incubation). The cells were subjected for flow cytometry analysis after the unbounded antibodies were washed by 2% FBS (in PBS)."}}}
{"binder": "B1", "values": [{"measurement": "Promotion for the specific killing effect of PBMCs on target cells by heterodimers (EC50, pM); F98-EGFR cells, LDH assay", "setting": "[1]", "value": 766, "unit": "pM"}, {"measurement": "Kd", "setting": "[2]", "value": 3.12, "unit": "nM"}, {"measurement": "Kd", "setting": "[3]", "value": 3.74, "unit": "nM"}]}
